We go through 13 molecules from patent US20180155451A1 (published 2018).

The target in test [1] is T1, FcγRIIb, extracellular domain with C-terminal His tag (human, UniProt P31994 43-217).
T1 construct: extracellular domain; Expressed in FreeStyle293 cells; analyte in the Biacore assay; also called FcgRIIb; 2b; not shown: His tag at the C terminus
T1 sequence (looked up): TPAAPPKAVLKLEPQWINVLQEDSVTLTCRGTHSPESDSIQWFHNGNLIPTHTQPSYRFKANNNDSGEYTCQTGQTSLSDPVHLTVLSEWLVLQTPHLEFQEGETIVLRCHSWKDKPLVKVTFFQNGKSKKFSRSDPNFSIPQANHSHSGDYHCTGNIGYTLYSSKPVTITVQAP
Kind of test: SPR Biacore, captured antibody, FcgR analyte; GpH7-A5/GpH7-B3/GpL16-k0 = 100.

The target of test [2] is T2, FcγRIIa H (FcγRIIa type H, His at position 131), extracellular domain with C-terminal His tag (human, UniProt P12318 34-217).
T2 construct: extracellular domain; Expressed in FreeStyle293 cells; analyte in the Biacore assay; also called FcgRIIa H; 2aH; not shown: His tag at the C terminus
T2 sequence (looked up): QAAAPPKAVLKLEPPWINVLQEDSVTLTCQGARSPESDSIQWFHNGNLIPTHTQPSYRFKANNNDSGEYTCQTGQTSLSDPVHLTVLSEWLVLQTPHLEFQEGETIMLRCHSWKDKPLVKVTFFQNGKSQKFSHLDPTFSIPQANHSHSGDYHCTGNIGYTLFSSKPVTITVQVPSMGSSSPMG
Described as above.

Test [3] deals with T2, FcγRIIa H (FcγRIIa type H, His at …). Kind of test: SPR Biacore; He/Con_2aH divided by He/Con_2b (reference: FcgRIIb). (In general: Surface plasmon resonance follows binding to a sensor surface in real time, without labels.)

B1: GpH7-A5/GpH7-B3 variant A327_19Q/GpL16-k0 (antibody, human IgG1, kappa)
heavy 1: not shown
heavy 2: not shown
light: DIVMTQSPLSLPVTPGEPASISCQASESLVHSNRNTYLHWYLQKPGQSPQLLIYKVSNRFSGVPDRFSGSGSGTDFTLKISRVEAEDVGVYYCSQNTHVPPTFGQGTKVEIERTVAAPSVFIFPPSDEQLKSGTASVVCLLNNFYPREAKVQWKVDNALQSGNSQESVTEQDSKDSTYSLSSTLTLSKADYEKHKVYACEVTHQGLSSPVTKSFNRGEC
notes: He Ab; IgG1; mutation in one H chain only; also called He Ab
With B1, the He/Con_2b in test [1] was 54.2 % of HeCon Ab. In addition, the He/Con_2aH in test [2] is 67.3 % of HeCon Ab. Moreover, in test [3], the “He_2aH/2b (IIaH/IIb)” value was determined as 1.24.

B2: GpH7-A5/GpH7-B3 variant E333_11K/GpL16-k0 (antibody, human IgG1, kappa)
heavy 1: not shown
heavy 2: not shown
light: DIVMTQSPLSLPVTPGEPASISCQASESLVHSNRNTYLHWYLQKPGQSPQLLIYKVSNRFSGVPDRFSGSGSGTDFTLKISRVEAEDVGVYYCSQNTHVPPTFGQGTKVEIERTVAAPSVFIFPPSDEQLKSGTASVVCLLNNFYPREAKVQWKVDNALQSGNSQESVTEQDSKDSTYSLSSTLTLSKADYEKHKVYACEVTHQGLSSPVTKSFNRGEC
notes: as for B1
Take B2: the He/Con_2b in test [1] is 80.6 % of HeCon Ab. Besides, in test [2], the He/Con_2aH is 98.1 % of HeCon Ab. Also, the “He_2aH/2b (IIaH/IIb)” value in test [3] turned out to be 1.22.

B3: GpH7-A5/GpH7-B3 variant A330_08L/GpL16-k0 (antibody, human IgG1, kappa)
heavy 1: not shown
heavy 2: not shown
light: DIVMTQSPLSLPVTPGEPASISCQASESLVHSNRNTYLHWYLQKPGQSPQLLIYKVSNRFSGVPDRFSGSGSGTDFTLKISRVEAEDVGVYYCSQNTHVPPTFGQGTKVEIERTVAAPSVFIFPPSDEQLKSGTASVVCLLNNFYPREAKVQWKVDNALQSGNSQESVTEQDSKDSTYSLSSTLTLSKADYEKHKVYACEVTHQGLSSPVTKSFNRGEC
notes: as for B1
For the molecule B3, in test [1], the He/Con_2b was 70.5 % of HeCon Ab. For the same molecule, the He/Con_2aH in test [2] was 87.6 % of HeCon Ab. The “He_2aH/2b (IIaH/IIb)” value in test [3] was 1.24.

B4: GpH7-A5/GpH7-B3 variant A330_14T/GpL16-k0 (antibody, human IgG1, kappa)
heavy 1: not shown
heavy 2: not shown
light: DIVMTQSPLSLPVTPGEPASISCQASESLVHSNRNTYLHWYLQKPGQSPQLLIYKVSNRFSGVPDRFSGSGSGTDFTLKISRVEAEDVGVYYCSQNTHVPPTFGQGTKVEIERTVAAPSVFIFPPSDEQLKSGTASVVCLLNNFYPREAKVQWKVDNALQSGNSQESVTEQDSKDSTYSLSSTLTLSKADYEKHKVYACEVTHQGLSSPVTKSFNRGEC
notes: as for B1
Take B4: the He/Con_2b in test [1] was 77.9 % of HeCon Ab. Moreover, the He/Con_2aH in test [2] is 94.5 % of HeCon Ab. Moreover, the “He_2aH/2b (IIaH/IIb)” value in test [3] turned out to be 1.21.

B5: GpH7-A5/GpH7-B3 variant I332_03V/GpL16-k0 (antibody, human IgG1, kappa)
heavy 1: not shown
heavy 2: not shown
light: DIVMTQSPLSLPVTPGEPASISCQASESLVHSNRNTYLHWYLQKPGQSPQLLIYKVSNRFSGVPDRFSGSGSGTDFTLKISRVEAEDVGVYYCSQNTHVPPTFGQGTKVEIERTVAAPSVFIFPPSDEQLKSGTASVVCLLNNFYPREAKVQWKVDNALQSGNSQESVTEQDSKDSTYSLSSTLTLSKADYEKHKVYACEVTHQGLSSPVTKSFNRGEC
notes: as for B1
Regarding B5, the He/Con_2b in test [1] was 80.7 % of HeCon Ab. In addition, the He/Con_2aH in test [2] was 105 % of HeCon Ab. Further, the “He_2aH/2b (IIaH/IIb)” value in test [3] turned out to be 1.3.

B6: GpH7-A5/GpH7-B3 variant E333_01G/GpL16-k0 (antibody, human IgG1, kappa)
heavy 1: not shown
heavy 2: not shown
light: DIVMTQSPLSLPVTPGEPASISCQASESLVHSNRNTYLHWYLQKPGQSPQLLIYKVSNRFSGVPDRFSGSGSGTDFTLKISRVEAEDVGVYYCSQNTHVPPTFGQGTKVEIERTVAAPSVFIFPPSDEQLKSGTASVVCLLNNFYPREAKVQWKVDNALQSGNSQESVTEQDSKDSTYSLSSTLTLSKADYEKHKVYACEVTHQGLSSPVTKSFNRGEC
notes: as for B1
As for B6, in test [1], the He/Con_2b was 81.4 % of HeCon Ab. Further, in test [2], the He/Con_2aH is 97.7 % of HeCon Ab. Moreover, the “He_2aH/2b (IIaH/IIb)” value in test [3] is 1.2.

B7: GpH7-A5/GpH7-B3 variant E333_13S/GpL16-k0 (antibody, human IgG1, kappa)
heavy 1: not shown
heavy 2: not shown
light: DIVMTQSPLSLPVTPGEPASISCQASESLVHSNRNTYLHWYLQKPGQSPQLLIYKVSNRFSGVPDRFSGSGSGTDFTLKISRVEAEDVGVYYCSQNTHVPPTFGQGTKVEIERTVAAPSVFIFPPSDEQLKSGTASVVCLLNNFYPREAKVQWKVDNALQSGNSQESVTEQDSKDSTYSLSSTLTLSKADYEKHKVYACEVTHQGLSSPVTKSFNRGEC
notes: as for B1
For B7, the He/Con_2b in test [1] is 81.8 % of HeCon Ab. In addition, in test [2], the He/Con_2aH is 101 % of HeCon Ab. Further, the “He_2aH/2b (IIaH/IIb)” value in test [3] came to 1.23.

B8: GpH7-A5/GpH7-B3 variant A330_18N/GpL16-k0 (antibody, human IgG1, kappa)
heavy 1: not shown
heavy 2: not shown
light: DIVMTQSPLSLPVTPGEPASISCQASESLVHSNRNTYLHWYLQKPGQSPQLLIYKVSNRFSGVPDRFSGSGSGTDFTLKISRVEAEDVGVYYCSQNTHVPPTFGQGTKVEIERTVAAPSVFIFPPSDEQLKSGTASVVCLLNNFYPREAKVQWKVDNALQSGNSQESVTEQDSKDSTYSLSSTLTLSKADYEKHKVYACEVTHQGLSSPVTKSFNRGEC
notes: as for B1
For B8, the He/Con_2b in test [1] is 63.7 % of HeCon Ab. Besides, the He/Con_2aH in test [2] is 81.6 % of HeCon Ab. Further, the “He_2aH/2b (IIaH/IIb)” value in test [3] was determined as 1.28.

B9: GpH7-A5/GpH7-B3 variant A330_03V/GpL16-k0 (antibody, human IgG1, kappa)
heavy 1: not shown
heavy 2: not shown
light: DIVMTQSPLSLPVTPGEPASISCQASESLVHSNRNTYLHWYLQKPGQSPQLLIYKVSNRFSGVPDRFSGSGSGTDFTLKISRVEAEDVGVYYCSQNTHVPPTFGQGTKVEIERTVAAPSVFIFPPSDEQLKSGTASVVCLLNNFYPREAKVQWKVDNALQSGNSQESVTEQDSKDSTYSLSSTLTLSKADYEKHKVYACEVTHQGLSSPVTKSFNRGEC
notes: as for B1
For B9, the He/Con_2b in test [1] was 52.4 % of HeCon Ab. In test [2], the He/Con_2aH was 79.7 % of HeCon Ab. Moreover, in test [3], the “He_2aH/2b (IIaH/IIb)” value was found to be 1.52.

B10: GpH7-A5/GpH7-B3 variant A330_13S/GpL16-k0 (antibody, human IgG1, kappa)
heavy 1: not shown
heavy 2: not shown
light: DIVMTQSPLSLPVTPGEPASISCQASESLVHSNRNTYLHWYLQKPGQSPQLLIYKVSNRFSGVPDRFSGSGSGTDFTLKISRVEAEDVGVYYCSQNTHVPPTFGQGTKVEIERTVAAPSVFIFPPSDEQLKSGTASVVCLLNNFYPREAKVQWKVDNALQSGNSQESVTEQDSKDSTYSLSSTLTLSKADYEKHKVYACEVTHQGLSSPVTKSFNRGEC
notes: as for B1
Turning to B10, the He/Con_2b in test [1] was 41.3 % of HeCon Ab. For the same molecule, the He/Con_2aH in test [2] is 65.4 % of HeCon Ab. In test [3], the “He_2aH/2b (IIaH/IIb)” value was determined as 1.58.

B11: GpH7-A5/GpH7-B3 variant A330_12R/GpL16-k0 (antibody, human IgG1, kappa)
heavy 1: not shown
heavy 2: not shown
light: DIVMTQSPLSLPVTPGEPASISCQASESLVHSNRNTYLHWYLQKPGQSPQLLIYKVSNRFSGVPDRFSGSGSGTDFTLKISRVEAEDVGVYYCSQNTHVPPTFGQGTKVEIERTVAAPSVFIFPPSDEQLKSGTASVVCLLNNFYPREAKVQWKVDNALQSGNSQESVTEQDSKDSTYSLSSTLTLSKADYEKHKVYACEVTHQGLSSPVTKSFNRGEC
notes: as for B1
On to B11, for which the He/Con_2b in test [1] is 84.8 % of HeCon Ab. Also, the He/Con_2aH in test [2] was 108 % of HeCon Ab. Moreover, the “He_2aH/2b (IIaH/IIb)” value in test [3] was determined as 1.27.

B12: GpH7-A5/GpH7-B3 variant A330_07I/GpL16-k0 (antibody, human IgG1, kappa)
heavy 1: not shown
heavy 2: not shown
light: DIVMTQSPLSLPVTPGEPASISCQASESLVHSNRNTYLHWYLQKPGQSPQLLIYKVSNRFSGVPDRFSGSGSGTDFTLKISRVEAEDVGVYYCSQNTHVPPTFGQGTKVEIERTVAAPSVFIFPPSDEQLKSGTASVVCLLNNFYPREAKVQWKVDNALQSGNSQESVTEQDSKDSTYSLSSTLTLSKADYEKHKVYACEVTHQGLSSPVTKSFNRGEC
notes: as for B1
With B12, the He/Con_2b in test [1] is 67.1 % of HeCon Ab. Also, the He/Con_2aH in test [2] was 87.3 % of HeCon Ab. Moreover, in test [3], the “He_2aH/2b (IIaH/IIb)” value turned out to be 1.3.

B13: GpH7-A5/GpH7-B3 variant E333_18N/GpL16-k0 (antibody, human IgG1, kappa)
heavy 1: not shown
heavy 2: not shown
light: DIVMTQSPLSLPVTPGEPASISCQASESLVHSNRNTYLHWYLQKPGQSPQLLIYKVSNRFSGVPDRFSGSGSGTDFTLKISRVEAEDVGVYYCSQNTHVPPTFGQGTKVEIERTVAAPSVFIFPPSDEQLKSGTASVVCLLNNFYPREAKVQWKVDNALQSGNSQESVTEQDSKDSTYSLSSTLTLSKADYEKHKVYACEVTHQGLSSPVTKSFNRGEC
notes: as for B1
For the molecule B13, the He/Con_2b in test [1] was 76.1 % of HeCon Ab. In test [2], the He/Con_2aH was 96.2 % of HeCon Ab. In addition, in test [3], the “He_2aH/2b (IIaH/IIb)” value was 1.26.
